This is an account of results in patent US20190233528A1 (published 2019).

Experiment [1] addresses T1, human CD70 expressed on parental (WT) Jurkat cells (human, UniProt P32970 1-193).
T1 sequence: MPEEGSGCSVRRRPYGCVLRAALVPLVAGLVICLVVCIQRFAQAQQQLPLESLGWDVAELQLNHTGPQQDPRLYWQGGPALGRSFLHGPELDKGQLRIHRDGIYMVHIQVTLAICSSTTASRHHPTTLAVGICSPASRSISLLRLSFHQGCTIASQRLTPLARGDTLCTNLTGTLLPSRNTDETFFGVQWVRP
Description: cell-based or functional assay.

Experiment [2] deals with T2, recombinant biotinylated human CD70 protein (human, UniProt P32970 39-193, biotinylated (site not stated)).
T2 construct: also called recombinant biotinylated hCD70 protein
T2 sequence: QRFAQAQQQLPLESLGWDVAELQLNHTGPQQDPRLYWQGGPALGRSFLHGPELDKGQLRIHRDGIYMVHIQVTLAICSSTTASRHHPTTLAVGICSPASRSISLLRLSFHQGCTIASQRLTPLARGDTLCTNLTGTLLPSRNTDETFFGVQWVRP
Description: flow cytometry: CAR-transduced Jurkat cells incubated with recombinant biotinylated human CD70, streptavidin-PE; percent of cells binding. On the procedure: On Day 5, transduced cells were stained with human anti-CD69 antibody conjugated to PE-Cy7 and acquired on a flow cytometer to obtain percentage of CD69+ population for each CAR. […] Activation ratios (WT activation/KO activation) and protein binding were used to rank CARs.
Table 7: Activation ratio and protein binding of phage CARs were determined in the Jurkat screen. Activation ratio was used for in vitro characterization of CARs. Activation ratio was determined by calculating the ratio of the percentage of CD69 expression on WT Jurkat cells transduced with CD70 CAR (WT) to that on CD70 knockout Jurkat cells transduced with CD70 CAR (KO). A higher activation ratio indicates target-dependent activation. […] Protein binding values indicate the percentage of CD3+ CAR T cells that bind to human CD70 protein.
For orientation: Flow cytometry measures light scatter and fluorescence of single cells or particles in a stream.

B1: P08A02 CD70-specific CAR (other)
chain: EVQLVQSGAEVKKPGESLKISCKGSGYTFTNYWIAWVRQMPGKGLEWMGIIYPDGSDTRYSPSFQGQVTISADKSISTAYLQWSSLKASDTAMYYCARDITSWYYGEPAFDIWGQGTLVTVSSGGGGSGGGGSGGGGSGGGGSELQSVLTQPPSASGTPGQRVTISCSGSSSNIGSNYVYWYQQLPGTAPKLLIYRNNQRPSGVPDRFSGSKSGTSASLAISGLRSEDEADYYCATWDDSLGSPVFGTGTKLTVLTTTPAPRPPTPAPTIASQPLSLRPEACRPAAGGAVHTRGLDFACDIYIWAPLAGTCGVLLLSLVITLYCKRGRKKLLYIFKQPFMRPVQTTQEEDGCSCRFPEEEEGGCELRVKFSRSADAPAYQQGQNQLYNELNLGRREEYDVLDKRRGRDPEMGGKPRRKNPQEGLYNELQKDKMAEAYSEIGMKGERRRGKGHDGLYQGLSTATKDTYDALHMQALPPR
notes: Chimeric antigen receptor on transduced Jurkat cells; the signal peptide is left out
Regarding B1, in experiment [1], the “Activation ratio (WT/KO)” value is 14.4. In addition, the “Protein binding (%)” value in experiment [2] was 20.7%.

B2: P08G02 CD70-specific CAR (other)
chain: EVQLVQSGAEVKKPGESLKISCKGSGYTFPSSWIGWVRQMPGKGLEWMGIIYPDTSHTRYSPSFQGQVTISADKSISTAYLQWSSLKASDTAMYYCARASYFDRGTGYSSWWMDVWGQGTLVTVSSGGGGSGGGGSGGGGSGGGGSELDIQMTQSPSSLSASVGDRVTITCRASQSIYDYLHWYQQKPGKAPKLLIYDASNLQSGVPSRFSGSGSGTDFTLTISSLQPEDFATYYCQQSYTTPLFTFGQGTKVEIKTTTPAPRPPTPAPTIASQPLSLRPEACRPAAGGAVHTRGLDFACDIYIWAPLAGTCGVLLLSLVITLYCKRGRKKLLYIFKQPFMRPVQTTQEEDGCSCRFPEEEEGGCELRVKFSRSADAPAYQQGQNQLYNELNLGRREEYDVLDKRRGRDPEMGGKPRRKNPQEGLYNELQKDKMAEAYSEIGMKGERRRGKGHDGLYQGLSTATKDTYDALHMQALPPR
notes: as for B1
For B2, the “Activation ratio (WT/KO)” value in experiment [1] was 2.11. In addition, the “Protein binding (%)” value in experiment [2] worked out at 77.8%.

B3: P08E02 CD70-specific CAR (other)
chain: EVQLVQSGAEVKKPGESLKISCKGSGYSFTSSWIGWVRQMPGKGLEWMGIIYPGDSDTRYSPSFQGQVTISADKSISTAYLQWSSLKASDTAMYYCAKGLSQAMTGFGFDYWGQGTLVTVSSGGGGSGGGGSGGGGSGGGGSELDIQMTQSPSSLSASVGDRVTITCRASQSISRYLNWYQQKPGKAPKLLIYAASILQTGVPSRFSGSGSGTDFTLTISSLQPEDFATYYCQQSYSTTMWTFGQGTKVEIKTTTPAPRPPTPAPTIASQPLSLRPEACRPAAGGAVHTRGLDFACDIYIWAPLAGTCGVLLLSLVITLYCKRGRKKLLYIFKQPFMRPVQTTQEEDGCSCRFPEEEEGGCELRVKFSRSADAPAYQQGQNQLYNELNLGRREEYDVLDKRRGRDPEMGGKPRRKNPQEGLYNELQKDKMAEAYSEIGMKGERRRGKGHDGLYQGLSTATKDTYDALHMQALPPR
notes: as for B1
In the case of B3, the “Activation ratio (WT/KO)” value in experiment [1] was found to be 3.29. Moreover, in experiment [2], the “Protein binding (%)” value stood at 57.1%.

B4: P08F08 CD70-specific CAR (other)
chain: EVQLVQSGAEVKKPGESLKISCKGSGYGFTSYWIGWVRQMPGKGLEWMGIIHPDDSDTKYSPSFQGQVTISADKSISTAYLQWSSLKASDTAMYYCASSYLRGLWGGYFDYWGQGTLVTVSSGGGGSGGGGSGGGGSGGGGSELQSVLTQPPSASGTPGQRVTISCSGSSSNIGSNYVNWYQQLPGTAPKLLIYGDYQRPSGVPDRFSGSKSGTSASLAISGLRSEDEADYYCATRDDSLSGSVVFGTGTKLTVLTTTPAPRPPTPAPTIASQPLSLRPEACRPAAGGAVHTRGLDFACDIYIWAPLAGTCGVLLLSLVITLYCKRGRKKLLYIFKQPFMRPVQTTQEEDGCSCRFPEEEEGGCELRVKFSRSADAPAYQQGQNQLYNELNLGRREEYDVLDKRRGRDPEMGGKPRRKNPQEGLYNELQKDKMAEAYSEIGMKGERRRGKGHDGLYQGLSTATKDTYDALHMQALPPR
notes: as for B1
Turning to B4, the “Activation ratio (WT/KO)” value in experiment [1] was 3.42. Moreover, in experiment [2], the “Protein binding (%)” value was found to be 35.9%.
